*1 amine or outer side, *2 acyl side, *3 side chain or, on linkers, in order; H or OH if unused. Side-chain parts run from the residue outwards. The star is where a group is joined. C18 diacid = O=C(O)CCCCCCCCCCCCCCCCC(=O)*; γGlu = O=C(O)[C@H](CCC(=O)[*:2])N[*:1]; Isovaleryl = CC(C)CC(=O)*; AEEA = NCCOCCOCC(=O)O
T1: human neuropeptide Y2 receptor (human, UniProt P49146 1-381)
T1 construct: whole, on cells; also called hNPY2 receptor; hNPY2-R
T1 sequence (looked up): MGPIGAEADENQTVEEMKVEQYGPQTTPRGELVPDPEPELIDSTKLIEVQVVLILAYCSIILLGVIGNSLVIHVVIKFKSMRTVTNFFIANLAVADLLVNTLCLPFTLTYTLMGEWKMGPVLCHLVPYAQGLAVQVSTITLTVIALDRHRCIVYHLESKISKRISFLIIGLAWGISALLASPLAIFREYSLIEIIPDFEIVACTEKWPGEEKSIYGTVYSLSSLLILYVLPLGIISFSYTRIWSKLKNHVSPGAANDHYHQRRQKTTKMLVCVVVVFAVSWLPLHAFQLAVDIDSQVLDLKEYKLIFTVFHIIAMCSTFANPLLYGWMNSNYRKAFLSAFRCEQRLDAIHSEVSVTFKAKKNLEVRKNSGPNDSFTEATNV


Molecular target: T1, human neuropeptide Y2 receptor
Test: radioligand competition (125I-PYY(1-36)), hNPY2R membranes
Procedure, shortened: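 Commercial human Y2 receptor membranes (0.5 μg protein/well) were incubated with peptide for 2 h at room temperature in 50 mM HEPES, 5 mM MgCl₂, 1 mM CaCl₂, pH 7.4, with 0.2% ovalbumin. Bound radioligand was separated on PEI-soaked GF/C filters and counted by scintillation, and IC₅₀ came from nonlinear sigmoidal regression.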

Ki [nM]	Binder
0.89	Isovaleryl-APEK([AEEA-AEEA-γGlu-C18 diacid])PEEDASPEELQQYYVELRHYYNWLTRQRY-NH2 (SMILES CC(C)CC(=O)N[C@@H](C)C(=O)N1CCC[C@H]1C(=O)N[C@@H](CCC(=O)O)C(=O)N[C@@H](CCCCNC(=O)COCCOCCNC(=O)COCCOCCNC(=O)CC[C@H](NC(=O)CCCCCCCCCCCCCCCCC(=O)O)C(=O)O)C(=O)N1CCC[C@H]1C(=O)N[C@@H](CCC(=O)O)C(=O)N[C@@H](CCC(=O)O)C(=O)N[C@@H](CC(=O)O)C(=O)N[C@@H](C)C(=O)N[C@@H](CO)C(=O)N1CCC[C@H]1C(=O)N[C@@H](CCC(=O)O)C(=O)N[C@@H](CCC(=O)O)C(=O)N[C@@H](CC(C)C)C(=O)N[C@@H](CCC(N)=O)C(=O)N[C@@H](CCC(N)=O)C(=O)N[C@@H](Cc1ccc(O)cc1)C(=O)N[C@@H](Cc1ccc(O)cc1)C(=O)N[C@H](C(=O)N[C@@H](CCC(=O)O)C(=O)N[C@@H](CC(C)C)C(=O)N[C@@H](CCCNC(=N)N)C(=O)N[C@@H](Cc1c[nH]cn1)C(=O)N[C@@H](Cc1ccc(O)cc1)C(=O)N[C@@H](Cc1ccc(O)cc1)C(=O)N[C@@H](CC(N)=O)C(=O)N[C@@H](Cc1c[nH]c2ccccc12)C(=O)N[C@@H](CC(C)C)C(=O)N[C@H](C(=O)N[C@@H](CCCNC(=N)N)C(=O)N[C@@H](CCC(N)=O)C(=O)N[C@@H](CCCNC(=N)N)C(=O)N[C@@H](Cc1ccc(O)cc1)C(N)=O)[C@@H](C)O)C(C)C) [Compound 49]
39.4	Isovaleryl-APEK([AEEA-AEEA-γGlu-C18 diacid])AEEEASPEELQRYYVSLRHYYNWLTRQRY-NH2 (SMILES CC(C)CC(=O)N[C@@H](C)C(=O)N1CCC[C@H]1C(=O)N[C@@H](CCC(=O)O)C(=O)N[C@@H](CCCCNC(=O)COCCOCCNC(=O)COCCOCCNC(=O)CC[C@H](NC(=O)CCCCCCCCCCCCCCCCC(=O)O)C(=O)O)C(=O)N[C@@H](C)C(=O)N[C@@H](CCC(=O)O)C(=O)N[C@@H](CCC(=O)O)C(=O)N[C@@H](CCC(=O)O)C(=O)N[C@@H](C)C(=O)N[C@@H](CO)C(=O)N1CCC[C@H]1C(=O)N[C@@H](CCC(=O)O)C(=O)N[C@@H](CCC(=O)O)C(=O)N[C@@H](CC(C)C)C(=O)N[C@@H](CCC(N)=O)C(=O)N[C@@H](CCCNC(=N)N)C(=O)N[C@@H](Cc1ccc(O)cc1)C(=O)N[C@@H](Cc1ccc(O)cc1)C(=O)N[C@H](C(=O)N[C@@H](CO)C(=O)N[C@@H](CC(C)C)C(=O)N[C@@H](CCCNC(=N)N)C(=O)N[C@@H](Cc1c[nH]cn1)C(=O)N[C@@H](Cc1ccc(O)cc1)C(=O)N[C@@H](Cc1ccc(O)cc1)C(=O)N[C@@H](CC(N)=O)C(=O)N[C@@H](Cc1c[nH]c2ccccc12)C(=O)N[C@@H](CC(C)C)C(=O)N[C@H](C(=O)N[C@@H](CCCNC(=N)N)C(=O)N[C@@H](CCC(N)=O)C(=O)N[C@@H](CCCNC(=N)N)C(=O)N[C@@H](Cc1ccc(O)cc1)C(N)=O)[C@@H](C)O)C(C)C) [Compound 51]

Reference: patent publication US20210139548A1 (published 2021)
